B1: A8 monomer (VHH)
VHH: QVQLVESGGGLVQAGGSLRLSCAASGGTFSTAAMGWFRQAPGEERECVASIGWRGVRTWYADSVKGRFTISRDNPQNTVYLQMNNLKSGDTAVYYCAASVGNYGLPWAHFEYDFWGQGIQVTVSS
B2: B5-5 monomer (VHH)
VHH: QVQLVESGGGLVQPGGSLRLSCAVFGSTLDNYSVGWFRQLPGKEREGLACFSRRYGAPYYADSAKDRFTISRDNAKNTVDLQLNGLKPEDTAVYYCATRSGPYCTTSVSDFDDWGRGTQVTVSS

Biological target: SARS-CoV-2 Wuhan RBD, de-glycosylated (SARS-CoV-2, UniProt P0DTC2)
Experiment: crystal structure
Settings: both partners purified

Binder	binding result
B1	binds
B2	binds

From publication PMC11285730 (Open Biology, 2024)
